Assay results as given in paper PMC4383704 (Cancer research, 2015).

Molecular target: mouse uPA (Mus musculus, UniProt P06869)
Experiment: ELISA

mouse uPA, sequence (P06869 21-433): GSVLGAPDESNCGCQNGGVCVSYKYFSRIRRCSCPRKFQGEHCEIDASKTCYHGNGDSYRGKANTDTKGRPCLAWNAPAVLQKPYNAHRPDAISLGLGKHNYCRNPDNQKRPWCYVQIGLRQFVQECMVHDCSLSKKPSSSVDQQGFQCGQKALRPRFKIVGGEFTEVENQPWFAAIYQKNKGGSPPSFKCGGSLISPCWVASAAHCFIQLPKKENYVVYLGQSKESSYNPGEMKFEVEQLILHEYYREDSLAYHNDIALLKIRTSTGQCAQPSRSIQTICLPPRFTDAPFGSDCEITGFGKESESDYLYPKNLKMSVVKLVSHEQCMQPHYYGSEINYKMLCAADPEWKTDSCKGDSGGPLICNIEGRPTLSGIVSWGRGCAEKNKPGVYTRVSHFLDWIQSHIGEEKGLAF

binding result: no binding (tested: 1 μM)
B1: U33 Fab (Fab, V domains shown)
VH: EVQLVQSGGGLVKPGRSLRLSCTASGFTFGDYAMSWVRQAPGKGLEWVGFIRSKAYGGTTEYAAVKGRFTISRDDSKSIAYLQMNSLKTEDTAVYYCIRGANWNWGQGTLVTVSS
VL: EIVLTQSPLSLPVTPGEPASISCRSSQTLMNRNGNNFLDWYLQKPGQSPQLLIYLGSNRAPGVPDRFSGSGSGTDFTLKISRVEAEDVGVYYCMQRIEFPYTFGQGTKLEIK
